{"source": "patent US20200316124A1", "molecular_target": "SCNN1A, Sodium Channel Epithelial 1 Alpha Subunit (Isoform 1, UniProt P37088-1) (human) (UniProt P37088)", "sequence (P37088 whole entry, canonical isoform, one chain of several)": "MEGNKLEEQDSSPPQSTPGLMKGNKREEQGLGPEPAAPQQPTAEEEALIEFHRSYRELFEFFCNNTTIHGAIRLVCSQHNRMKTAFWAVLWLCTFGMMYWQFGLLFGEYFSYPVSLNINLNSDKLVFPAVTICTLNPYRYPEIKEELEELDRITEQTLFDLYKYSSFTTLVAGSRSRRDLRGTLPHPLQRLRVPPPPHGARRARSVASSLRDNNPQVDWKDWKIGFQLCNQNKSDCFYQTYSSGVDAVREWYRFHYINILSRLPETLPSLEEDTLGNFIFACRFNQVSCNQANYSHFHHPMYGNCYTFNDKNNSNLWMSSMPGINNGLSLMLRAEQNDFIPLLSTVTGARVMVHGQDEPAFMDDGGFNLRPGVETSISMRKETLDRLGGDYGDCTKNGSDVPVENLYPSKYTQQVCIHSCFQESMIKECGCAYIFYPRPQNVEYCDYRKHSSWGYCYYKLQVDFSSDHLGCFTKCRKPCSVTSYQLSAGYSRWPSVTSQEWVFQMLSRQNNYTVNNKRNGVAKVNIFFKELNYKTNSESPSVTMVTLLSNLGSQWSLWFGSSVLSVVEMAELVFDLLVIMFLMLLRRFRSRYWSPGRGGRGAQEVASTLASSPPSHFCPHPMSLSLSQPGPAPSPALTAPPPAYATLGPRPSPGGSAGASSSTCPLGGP", "assay": "cell-based or functional assay", "data": [{"substance": "SW.3G1 T-cell receptor (γ3δ1 TCR, TRGV3/TRDV1) of T-cell clone SW.3G1", "values": [{"measurement": "killing in long term killing assay, LCL.174 wildtype cells", "value": 100, "unit": "%"}, {"measurement": "lysis in long term killing assay, LCL.174 SCNN1A knockout cell lines (gRNA-1 or gRNA-2)", "value": "< 5", "unit": "%"}]}]}
